Measured values reported in paper PMC5389638 (Nucleic Acids Research, 2016).

Target: the molecule itself
Experiment: AFM volume analysis

B1: 6His–Ver (natural protein, Drosophila, UniProt Q9VTZ2 1-214, looked up)
chain: MDFNQSFEDIESQLDNFVIRKNQQSEKSTGKCGPEVHDNVPLTISQIERATQDPENENVFITDDVHPIHFCTCIIYAFVTGNGTHNESFMKFMIDDGTGSLEASITKKPFNGRVISSLYSEASSLASSEAYKSIAVSMMRLLQVSMEYIDPTRISRGHSLFLRGRPNRFRGKMGLDAFQFFIDSGRSRNMEIGFVDYLTDWQRRHKTMQNTTNK
B1 was tested, and the “stoichiometry N” value was 2.
